Data taken from US20250019437A1.

T1: human TREM2 (triggering receptor expressed on myeloid cells 2) (human) (UniProt Q9NZC2)
T1 sequence (looked up): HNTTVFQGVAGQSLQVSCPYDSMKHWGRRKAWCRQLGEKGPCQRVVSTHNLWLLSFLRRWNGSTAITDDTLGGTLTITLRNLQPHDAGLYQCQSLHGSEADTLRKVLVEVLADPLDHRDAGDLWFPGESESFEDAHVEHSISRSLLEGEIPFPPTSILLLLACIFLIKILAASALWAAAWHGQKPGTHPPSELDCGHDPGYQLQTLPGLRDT


What was measured:
[1] = biological target: T1, human TREM2 (triggering receptor expressed on myeloid cells 2) (human); test: 1st screen, 110 nM Ab
[2] = biological target: T1, human TREM2 (triggering receptor expressed on myeloid cells 2) (human); test: 2nd screen, 100 nM Ab

| Binder | Binding Signal (fold over 6E7 parental antibody) [1] | Binding Signal (fold over 6E7 parental antibody) [2] |
| --- | --- | --- |
| 6E7 antibody affinity modulation variant V34 (antibody, V domains shown) VH: EVQLVQSGAEVKKPGESLKISCKGSGYSFTSYWIAWVRQMPGKGLEWMGIIYPGDSDTRYSPSFQGQVTISADKSISTAYLQWSSLKASDTAMYFCARQRTFYYDSSDYFDYWGQGTLVTVSS VL: DIQMTQSPSSVSASVGDRVTITCRASQGISSWLAWYQQKPGKAPKLLIYAASSLQDGVPSRFSGSGSGTDFTLTISSLQPEDFATYFCQQADSFPRTFGQGTKLEIK | 0.34 fold | 1.02 fold |
| 6E7 antibody affinity modulation variant V68 (antibody, V domains shown) VH: EVQLVQSGAEVKKPGESLKISCKGSGYSFTSYWIAWVRQMPGKGLEWMGIIYPGDSDTRYSPSFQGQVTISADKSISTAYLQWSSLKASDTAMYFCARQRTFRYDSSDYFDYWGQGTLVTVSS VL: DIQMTQSPSSVSASVGDRVTITCRASQGISSWLAWYQQKPGKAPKLLIYAASSLQNGVPSRFSGSGSGTDFTLTISSLQPEDFATYFCQQADSFPRTFGQGTKLEIK | 0.44 fold | 0.43 fold |
| 6E7 antibody affinity modulation variant V56 (antibody, V domains shown) VH: EVQLVQSGAEVKKPGESLKISCKGSGYSFTSYWIAWVRQMPGKGLEWMGIIYPGDSDTRYQPSFQGQVTISADKSISTAYLQWSSLKASDTAMYFCARQRTFYYDSSDYFDYWGQGTLVTVSS VL: DIQMTQSPSSVSASVGDRVTITCRASQGISSWLAWYQQKPGKAPKLLIYAASSLQNGVPSRFSGSGSGTDFTLTISSLQPEDFATYFCQQADSFPRTFGQGTKLEIK | 0.23 fold | 0.59 fold |
| 6E7 antibody affinity modulation variant V43 (antibody, V domains shown) VH: EVQLVQSGAEVKKPGESLKISCKGSGYSFTSYWIAWVRQMPGKGLEWMGIIYPGDSGTRYSPSFQGQVTISADKSISTAYLQWSSLKASDTAMYFCARQRTFYYDSSDYFDYWGQGTLVTVSS VL: DIQMTQSPSSVSASVGDRVTITCRASQGISSWLAWYQQKPGKAPKLLIYAASSLQNGVPSRFSGSGSGTDFTLTISSLQPEDFATYFCQQADSFPRTFGQGTKLEIK | 0.2 fold | 0.33 fold |
| 6E7 antibody affinity modulation variant V44 (antibody, V domains shown) VH: EVQLVQSGAEVKKPGESLKISCKGSGYSFTSYWIAWVRQMPGKGLEWMGIIYPSDSDTRYSPSFQGQVTISADKSISTAYLQWSSLKASDTAMYFCARQRTFYYDSSDYFDYWGQGTLVTVSS VL: DIQMTQSPSSVSASVGDRVTITCRASQGISSWLAWYQQKPGKAPKLLIYAASSLQNGVPSRFSGSGSGTDFTLTISSLQPEDFATYFCQQADSFPRTFGQGTKLEIK | 0.65 fold | 0.52 fold |
| 6E7 antibody affinity modulation variant V45 (antibody, V domains shown) VH: EVQLVQSGAEVKKPGESLKISCKGSGYSFTSYWIAWVRQMPGKGLEWMGIIYPGDSDTRYSPSFQGQVTISADKSISTAYLQWSSLKASDTAMYFCARQRTFYYDSSDYFDYWGQGTLVTVSS VL: DIQMTQSPSSVSASVGDRVTITCRASQGISSFLAWYQQKPGKAPKLLIYAASSLQNGVPSRFSGSGSGTDFTLTISSLQPEDFATYFCQQADSFPRTFGQGTKLEIK | 0.43 fold | 0.53 fold |
| 6E7 antibody affinity modulation variant V69 (antibody, V domains shown) VH: EVQLVQSGAEVKKPGESLKISCKGSGYSFTSYWIAWVRQMPGKGLEWMGIIYPGDSDTRYSPSFQGQVTISADKSISTAYLQWSSLKASDTAMYFCARQRTFYYDSSDYFDYWGQGTLVTVSS VL: DIQMTQSPSSVSASVGDRVTITCRASQGISSYLAWYQQKPGKAPKLLIYAASSLQNGVPSRFSGSGSGTDFTLTISSLQPEDFATYFCQQADSFPRTFGQGTKLEIK | 0.41 fold | 0.4 fold |
| 6E7 antibody affinity modulation variant V46 (antibody, V domains shown) VH: EVQLVQSGAEVKKPGESLKISCKGSGYSFTSYWIAWVRQMPGKGLEWMGIIYPGDSDTRYSPSFQGQVTISADKSISTAYLQWSSLKASDTAMYFCARQRTFYYDSSDYFDYWGQGTLVTVSS VL: DIQMTQSPSSVSASVGDRVTITCRASQGISSWLAWYQQKPGKAPKLLIYAASTLQNGVPSRFSGSGSGTDFTLTISSLQPEDFATYFCQQADSFPRTFGQGTKLEIK | 0.83 fold | 0.96 fold |
| 6E7 antibody affinity modulation variant V57 (antibody, V domains shown) VH: EVQLVQSGAEVKKPGESLKISCKGSGYSFTSYWIAWVRQMPGKGLEWMGIIYPGDSDTRYSPSFQGQVTISADKSISTAYLQWSSLKASDTAMYFCARQRTFYYDSSDYFDYWGQGTLVTVSS VL: DIQMTQSPSSVSASVGDRVTITCAASQGISSWLAWYQQKPGKAPKLLIYAASSLQNGVPSRFSGSGSGTDFTLTISSLQPEDFATYFCQQADSFPRTFGQGTKLEIK | 0.84 fold | 0.85 fold |
| 6E7 antibody affinity modulation variant V47 (antibody, V domains shown) VH: EVQLVQSGAEVKKPGESLKISCKGSGYSFTSYWIAWVRQMPGKGLEWMGIIYPGDSDTRYSPSFQGQVTISADKSISTAYLQWSSLKASDTAMYFCARQRTFYYDSSDYFDYWGQGTLVTVSS VL: DIQMTQSPSSVSASVGDRVTITCRASQGISSWLAWYQQKPGKAPKLLIYAASSLQNGVPSRFSGSGSGTDFTLTISSLQPEDFATYFCQQADSFPMTFGQGTKLEIK | 0.42 fold | 0.47 fold |
| 6E7 antibody affinity modulation variant V42 (antibody, V domains shown) VH: EVQLVQSGAEVKKPGESLKISCKGSGYSFTSAWIAWVRQMPGKGLEWMGIIYPGDSDTRYSPSFQGQVTISADKSISTAYLQWSSLKASDTAMYFCARQRTFYYDSSDYFDYWGQGTLVTVSS VL: DIQMTQSPSSVSASVGDRVTITCRASQGISSWLAWYQQKPGKAPKLLIYAASSLQNGVPSRFSGSGSGTDFTLTISSLQPEDFATYFCQQADSFPRTFGQGTKLEIK | 0.45 fold | 0.41 fold |
| 6E7 antibody affinity modulation variant V59 (antibody, V domains shown) VH: EVQLVQSGAEVKKPGESLKISCKGSGYSFTSYWIAWVRQMPGKGLEWMGIIYPGDSDTRYSPSFQGQVTISADKSISTAYLQWSSLKASDTAMYFCARQRTFYYDSSDYFDYWGQGTLVTVSS VL: DIQMTQSPSSVSASVGDRVTITCRASQGISSWLAWYQQKPGKAPKLLIYAASSLQNGVPSRFSGSGSGTDFTLTISSLQPEDFATYFCMQADSFPRTFGQGTKLEIK | 0.19 fold | 0.6 fold |
| 6E7 antibody affinity modulation variant V58 (antibody, V domains shown) VH: EVQLVQSGAEVKKPGESLKISCKGSGYSFTSYWIAWVRQMPGKGLEWMGIIYPGDSDTRYSPSFQGQVTISADKSISTAYLQWSSLKASDTAMYFCARQRTFYYDSSDYFDYWGQGTLVTVSS VL: DIQMTQSPSSVSASVGDRVTITCRASQGISSWLAWYQQKPGKAPKLLIYKASSLQNGVPSRFSGSGSGTDFTLTISSLQPEDFATYFCQQADSFPRTFGQGTKLEIK | 0.28 fold | 0.68 fold |
| 6E7 antibody affinity modulation variant V35 (antibody, V domains shown) VH: EVQLVQSGAEVKKPGESLKISCKGSGYSFTSYWIAWVRQMPGKGLEWMGIIYPGDSDTRYSPSFQGQVTISADKSISTAYLQWSSLKASDTAMYFCARQRTFYYDSSDYFDYWGQGTLVTVSS VL: DIQMTQSPSSVSASVGDRVTITCRASQGISSWLAWYQQKPGKAPKLLIYAASSLQNGVPSRFSGSGSGTDFTLTISSLQPEDFATYFCQQAYSFPRTFGQGTKLEIK | 0.21 fold | 0.29 fold |
| 6E7 antibody affinity modulation variant V67 (antibody, V domains shown) VH: EVQLVQSGAEVKKPGESLKISCKGSGYSFTSYWIAWVRQMPGKGLEWMGMIYPGDSDTRYSPSFQGQVTISADKSISTAYLQWSSLKASDTAMYFCARQRTFYYDSSDYFDYWGQGTLVTVSS VL: DIQMTQSPSSVSASVGDRVTITCRASQGISSWLAWYQQKPGKAPKLLIYAASSLQNGVPSRFSGSGSGTDFTLTISSLQPEDFATYFCQQADSFPRTFGQGTKLEIK | 0.8 fold | 0.84 fold |
| 6E7 antibody affinity modulation variant V54 (antibody, V domains shown) VH: EVQLVQSGAEVKKPGESLKISCKGSGYSFTSQWIAWVRQMPGKGLEWMGIIYPGDSDTRYSPSFQGQVTISADKSISTAYLQWSSLKASDTAMYFCARQRTFYYDSSDYFDYWGQGTLVTVSS VL: DIQMTQSPSSVSASVGDRVTITCRASQGISSWLAWYQQKPGKAPKLLIYAASSLQNGVPSRFSGSGSGTDFTLTISSLQPEDFATYFCQQADSFPRTFGQGTKLEIK | 0.55 fold | 0.54 fold |
| 6E7 antibody affinity modulation variant V55 (antibody, V domains shown) VH: EVQLVQSGAEVKKPGESLKISCKGSGYSFTSYWIAWVRQMPGKGLEWMGIIYPGDSDTIYSPSHQGQVTISADKSISTAYLQWSSLKASDTAMYFCARQRTFYYDSSDYFDYWGQGTLVTVSS VL: DIQMTQSPSSVSASVGDRVTITCRASQGISSWLAWYQQKPGKAPKLLIYAASSLQNGVPSRFSGSGSGTDFTLTISSLQPEDFATYFCQQADSFPRTFGQGTKLEIK | 0.24 fold | 0.66 fold |
| 6E7 antibody affinity modulation variant V66 (antibody, V domains shown) VH: EVQLVQSGAEVKKPGESLKISCKGSGTSFTSYWIAWVRQMPGKGLEWMGIIYPGDSDTRYSPSFQGQVTISADKSISTAYLQWSSLKASDTAMYFCARQRTFYYDSSDYFDYWGQGTLVTVSS VL: DIQMTQSPSSVSASVGDRVTITCRASQGISSWLAWYQQKPGKAPKLLIYAASSLQNGVPSRFSGSGSGTDFTLTISSLQPEDFATYFCQQADSFPRTFGQGTKLEIK | 0.25 fold | 0.74 fold |
